Tested on: HIV-1IIIB
Experiment: Selection of GSEs from HeLa cell library using productive infection of CEM-ss cells
Format: cell-based
Method: Additionally, a normalized RFE library made from HeLa cells was transferred into CEM-ss cells and the neo resistant population was infected with TCID50 of 3000/10^6 cells of HIV-1IIIB. This RFE library was represented by 50×10^6 independent recombinant clones. Four and seven days after infection, a purified anti-CD4 monoclonal antibody, L77 (available from Becton Dickinson), was added at 5 Φg/mL to prevent syncytia formation. Syncytia formation is thought to be prevented by blocking the interaction between gp120 expressed on the surface of an infected cell and CD4 on the surface of an uninfected cell. […] At 10-12 days after infection, CD4^+, p24^− cell population representing uninfected cells were sorted. Genomic DNA from the CD4^+, p24^− cells was purified and used for PCR amplification of inserts with the vector-derived primers. The amplified mixture was digested with EcoRI and BamHI and cloned back into the retroviral vector. The selection was repeated for additional rounds.
The selection of GSEs from HeLa cell library using productive infection of CEM-ss cells isolated […] additional nucleic acid molecules which have substantial sequence identity with other cellular genes.
The selection of GSEs from a HeLa cell library using productive infection of CEM-ss cells isolated 21 additional nucleic acid molecules which have substantial sequence identity with other cellular genes. […] The complement of SEQ ID NO:25 is represented by SEQ ID NO:26. […] The complement of SEQ ID NO:27 is represented by SEQ ID NO:28. […] The complement of SEQ ID NO:29 is represented by SEQ ID NO:30. […] The complement of SEQ ID NO:31 is represented by SEQ ID NO:32. […] The complement of SEQ ID NO:33 is represented by SEQ ID NO:34. […] The complement of SEQ ID NO:35 is represented by SEQ ID NO:36. […] The complement of SEQ ID NO:37 is represented by SEQ ID NO:38. […] The complement of SEQ ID NO:39 is represented by SEQ ID NO:40. […] The complement of SEQ ID NO:41 is represented by SEQ ID NO:42. […] The complement of SEQ ID NO:43 is represented by SEQ ID NO:44. […] The complement of SEQ ID NO:45 is represented by SEQ ID NO:46. […] The complement of SEQ ID NO:47 is represented by SEQ ID NO:48. […] The complement of SEQ ID NO:49 is represented by SEQ ID NO:50. […] The complement of SEQ ID NO:51 is represented by SEQ ID NO:52. […] The complement of SEQ ID NO:53 is represented by SEQ ID NO:54. […] The complement of SEQ ID NO:55 is represented by SEQ ID NO:56. […] The complement of SEQ ID NO:57 is represented by SEQ ID NO:58. […] The complement of SEQ ID NO:59 is represented by SEQ ID NO:60. […] The complement of SEQ ID NO:61 is represented by SEQ ID NO:62. […] The complement of SEQ ID NO:77 is represented by SEQ ID NO:78. […] The complement of SEQ ID NO:87 is represented by SEQ ID NO:88. […] The complement of SEQ ID NO:99 is represented by SEQ ID NO:100. […] The complement of SEQ ID NO:101 is represented by SEQ ID NO:102. […] The complement of SEQ ID NO:103 is represented by SEQ ID NO:104. […] The complement of SEQ ID NO:105 is represented by SEQ ID NO: 106. […] The complement of SEQ ID NO:107 is represented by SEQ ID NO:108. […] The complement of SEQ ID NO:109 is represented by SEQ ID NO:110. […] The complement of SEQ ID NO:111 is represented by SEQ ID NO:112. […] The complement of SEQ ID NO:113 is represented by SEQ ID NO:114. […] The complement of SEQ ID NO:115 is represented by SEQ ID NO:116. […] The complement of SEQ ID NO:117 is represented by SEQ ID NO:118.

Molecule	HIV-suppressive activity of the GSE and active orientation
CF-322: GSE, SEQ ID NO:31, sense; anti-proliferative factor (BTG-1) gene (nucleic acid, listed as Homo sapiens) sense: CGACAGCTGCAGACCTTCAGCCAGAGCCTGCAGGAGCTGCTGGCAGAACATTATAAACATCACTGGTTCCCAGAAAA	interferes with HIV replication in the sense orientation
H1C-2F9: GSE, SEQ ID NO:103, antisense; ArgRS gene (nucleic acid, listed as Homo sapiens) antisense: ATACTTTAATTTTAAATTTTCTTCTTGTAACTGCTCCAAATTCGGAGAAGCTCCTAAACAGCCACAGTTTTTCAACCGGTCAATTTCAGCAGTCAGAGATTTAATCTCTTCTTCCTGCTGCAGCAGCCGCGCGGAGCACTCAGACATCAGTACGTCCATCCTCCCATCAGCG	interferes with HIV replication as an antisense molecule
CF-624: GSE, SEQ ID NO:57, sense; p18 protein gene (nucleic acid, listed as Homo sapiens, chemistry not fully specified, p18 protein gene) sense: TGTTCTGAGAACTGACTTTCTCCCCATCCCCTTCCTAAATATCCAAAGACTGTACTGGCCAGTGTCATTTTATTTTTTCCCTCCTGACAAT	interferes with HIV replication in a sense orientation
H1C-6G5: GSE, SEQ ID NO:117, antisense; human glutaredoxin gene (nucleic acid, listed as Homo sapiens) antisense: TTTAAAGGGACAGCTTCGAAGACATTTCCATCTGGTATACTTCACTAGTTAGCAATGCCCAGGAATGC	interferes with HIV replication as an antisense molecule
CF-630: GSE, SEQ ID NO:59, antisense; p40 protein gene (nucleic acid, listed as Homo sapiens, chemistry not fully specified, p40 protein gene) antisense: GCTTAGAGTATGGAGAACATGGATGCAGAACACCAGACACCCCTTTCTCTCTCTTTGAAGGAATGGCTGGAACAATATATTTCCTGGCTGACCTGCTAGTCCCCACAAAAGCCAGGTTCG	interferes with HIV replication as an antisense molecule
CF-287: GSE, SEQ ID NO:77, sense; Na+-D-glucose cotransport regulator gene (nucleic acid, listed as Homo sapiens) sense: CAGGTTGTCTTTAAGATGTTCTTTTAGACAGCTGCACATTGTAGACCCTTTCACCTGCCCTACACCAAAGATGTACGATGCACTAGGAAACTGCTCATAGGATTTCTGTCAGCT	interferes with HIV replication in a sense orientation
CF-320: GSE, SEQ ID NO:27, sense; double-strand break DNA repair gene (nucleic acid, listed as Homo sapiens) sense: GCCTGCACATGACGATATGGATGAGGATGATAATGTATCAATGGGTGGGCCTGATAGTCCTGATTCAGTGGATCCCGT	interferes with HIV infection in the sense orientation
CF-547: GSE, SEQ ID NO:51, antisense; recepin endoprotease gene (nucleic acid, listed as Homo sapiens, chemistry not fully specified, recepin endoprotease gene) antisense: ACAGAAGGAGAGACCGAATACAAATTTGAATGGCAGAAAGGAGCCCCACGAGAAAAATATGCCAAAGATGACATGAACATCAGAGATCAGCCCTTTA	interferes with HIV replication as an antisense molecule
H1C-11H9: GSE, SEQ ID NO:99, antisense; human SHIP gene (nucleic acid, listed as Homo sapiens) antisense: GGAACTCCAGGTAGAATTTGGTCTGGGACTTGGTCTTCAATGTGGCATAGCACCTGAGAAACTCAAT	interferes with HIV replication as an antisense molecule
CF-622: GSE, SEQ ID NO:87, antisense; Rox gene (nucleic acid, listed as Homo sapiens, chemistry not fully specified, Rox gene) antisense: GGAAAAAAAAAAAAACTACAAAAACCCTAATTTTGTACATACTGTATTTTTACTATTGAACTGTATTCTAGTGGCTGTTCATGCTCCAAGACTTTAGTTACCGAGACATGAATACTATCCATG	interferes with HIV replication as an antisense molecule
H1C-16E3: GSE, SEQ ID NO:111, antisense; FYN gene (nucleic acid, listed as Homo sapiens) antisense: TTTCTCGCTTGTATTCCTGAAGATGAGTTTGGCCCTGTGACTCTGAAGGGTCGGCTATTAACTGAGACATCCTCTGTCGGGTTGCCCCCCGTGTTATATTTCGCCATGAGGGACTTTACATCTGCCTTTCCATCCTACAAACATAGGGAACAAAAAATAGCTGAGAGACA	interferes with HIV replication as an antisense molecule
CF-335: GSE, SEQ ID NO:35, antisense; protein phosphatase 2A gene (nucleic acid, listed as Homo sapiens, chemistry not fully specified, protein phosphatase 2A gene) antisense: GGTAAGGGTAGGGCACTTTTAATTTAAATGACTTCTTGCACCATCTTGCCTAATGGACTAGATTGGACTGTATCAACATTGATTTACTC	interferes with HIV replication as an antisense molecule
CF-619: GSE, SEQ ID NO:53, sense; Arg/Abl interacting protein (ArgBP2A) gene (nucleic acid, listed as Homo sapiens, chemistry not fully specified) sense: GTTCCACCTCCAGTCCCGCCGCTTCGACCAAGAGATCGGTCTTCAACAGAAAAGCATGACTGGGATCCTCCAGA	interferes with HIV replication in the sense orientation
H1C-23G2: GSE, SEQ ID NO:113, antisense; human CTSB gene (nucleic acid, listed as Homo sapiens) antisense: GCCGGTGGCTCACATGGCCTGTCTGCACTGTAACCACAGGCTGGGATGTAGCCAGGACTTGGTCTCCTTGGAAGACAGGTCTGATGTTTGGCCAATCCAGTCCTTCAGACCCTGTCTGAAACTTGTA	interferes with HIV replication as an antisense molecule
CF-42: GSE, SEQ ID NO:37, sense; squalene synthetase gene (nucleic acid, listed as Homo sapiens, chemistry not fully specified, squalene synthetase gene) sense: TGGCTGGGACCTTTAGGAAAGTGAAATGCAGGTGAGAAGAACCTAAACATGAAAGGAAAGGGTGCCTCATCCCAGCAACCTGTCCTTGTGGGTGATGATCACTGTGCTGCTTGTGGCTCAT	interferes with HIV replication in the sense orientation
H1C-16A3: GSE, SEQ ID NO:101, antisense; human GNB2L1 gene (nucleic acid, listed as Homo sapiens) antisense: AGGCGGAGAGGATCATGTCCGGGAACTGCGGGGTAGTAGCGATCTGGGTTACCCAGCCGTTGTGGCCCTTGAGGGTGCCACGAAGGGTCATCTGCTCA	interferes with HIV replication as an antisense molecule
CF-579: GSE, SEQ ID NO:61, sense; glucosidase alpha II gene (nucleic acid, listed as Homo sapiens) sense: AGTTGGTATCAATGGAGTGGGAGAGGTGAGGAGATCACAAGAGGAATTTGGAGCCCAGGGTCAGCCCTCTCATCCTGCCCAAATGTTGGCAGAATCTGGGTCTTAGACTAGCATAAGTGAAGTCTGGGGAGGGCCGAAC	interferes with HIV replication in a sense orientation
H1C-37E11: GSE, SEQ ID NO:115, antisense; human cathepsin L gene (nucleic acid, listed as Homo sapiens) antisense: GTCGACCTTCCTCTTTACCGTCCACCAGCTCACACAGTGGGGTAGCTGGCTGCTGAGGCAATTCCACAATGGTTTCTCT	interferes with HIV replication as an antisense molecule

Source: patent publication US6613506B1, “Compositions and methods for inhibiting human immunodeficiency virus infection by down-regulating human cellular genes” (Subsidiary No. 3, Inc., priority 2000, dated 2003)
